Experimental data taken from patent US20240424125A1 (Zymeworks, published 2024).

Columns and labels:
human FRα on cells [1] = target: T1, human FRα on cells (human, UniProt P15328 25-234); experiment: cell-based or functional assay
human FRα on cells [2] = target: T1, human FRα on cells; experiment: cell-based or functional assay; remark: listed apart in the source

T1 sequence (P15328 25-234 limits assumed): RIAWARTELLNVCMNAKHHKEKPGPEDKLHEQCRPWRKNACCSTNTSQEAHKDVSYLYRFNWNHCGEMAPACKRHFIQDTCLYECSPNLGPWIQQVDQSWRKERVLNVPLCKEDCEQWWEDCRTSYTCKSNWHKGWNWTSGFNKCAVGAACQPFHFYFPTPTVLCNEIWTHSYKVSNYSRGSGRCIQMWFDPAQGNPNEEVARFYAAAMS

| Binder | EC50 (nM), in vitro cytotoxicity, 2D monolayer, JEG-3 cells, 4 days (human FRα on cells [1]) [nM] | EC50 (nM), in vitro cytotoxicity, 2D monolayer, KB-HeLa cells, 4 days (human FRα on cells [1]) [nM] | EC50 (nM), in vitro cytotoxicity, 2D monolayer, T-47D cells, 4 days (human FRα on cells [1]) [nM] | 3D EC50 (nM), in vitro cytotoxicity, HEC-1-A spheroids, 6 days (human FRα on cells [2]) [nM] | 3D EC50 (nM), in vitro cytotoxicity, IGROV-1 spheroids, 6 days (human FRα on cells [2]) [nM] | 3D EC50 (nM), in vitro cytotoxicity, OVCAR-3 spheroids, 6 days (human FRα on cells [2]) [nM] | 3D EC50 (nM), in vitro cytotoxicity, T-47D spheroids, 6 days (human FRα on cells [2]) [nM] |
| --- | --- | --- | --- | --- | --- | --- | --- |
| v30384-MC-GGFG-AM-DXd1 (antibody, human IgG1, kappa, drug-linker MC-GGFG-AM-DXd1 on the antibody at DAR 8; conjugated residues not stated) heavy 1: EVQLLESGGGLVQPGGSLRLSCAVSGFSLSSYGVSWVRQAPGKGLEWIGAVNSGGSAYYADSVKGRSTISRDNSKNTVYLQMNSLRAEDTAVYYCARSGSGYPMDYLAIWGQGTLVTVSSASTKGPSVFPLAPSSKSTSGGTAALGCLVKDYFPEPVTVSWNSGALTSGVHTFPAVLQSSGLYSLSSVVTVPSSSLGTQTYICNVNHKPSNTKVDKKVEPKSCDKTHTCPPCPAPELLGGPSVFLFPPKPKDTLMISRTPEVTCVVVDVSHEDPEVKFNWYVDGVEVHNAKTKPREEQYNSTYRVVSVLTVLHQDWLNGKEYKCKVSNKALPAPIEKTISKAKGQPREPQVYVYPPSRDELTKNQVSLTCLVKGFYPSDIAVEWESNGQPENNYKTTPPVLDSDGSFALVSKLTVDKSRWQQGNVFSCSVMHEALHNHYTQKSLSLSPG heavy 2: not shown light: DYQMTQSPSSVSASVGDRVTITCRASQSIGDWLAWYQQKPGKAPKLLIYEASTLASGVPSRFSGSGSGTDFTLTISSVQPEDAATYYCQQGYGRSNVDNIFGGGTKVEVKRTVAAPSVFIFPPSDEQLKSGTASVVCLLNNFYPREAKVQWKVDNALQSGNSQESVTEQDSKDSTYSLSSTLTLSKADYEKHKVYACEVTHQGLSSPVTKSFNRGEC | 0.54 | 0.52 | 2.08 | 1.1 | 0.5 | 8.2 | 0.9 |
| v30384-MT-GGFG-AM-Compound 139 (antibody, human IgG1, kappa, drug-linker MT-GGFG-AM-Compound 139 on the antibody at DAR 8; conjugated residues not stated) heavy 1: EVQLLESGGGLVQPGGSLRLSCAVSGFSLSSYGVSWVRQAPGKGLEWIGAVNSGGSAYYADSVKGRSTISRDNSKNTVYLQMNSLRAEDTAVYYCARSGSGYPMDYLAIWGQGTLVTVSSASTKGPSVFPLAPSSKSTSGGTAALGCLVKDYFPEPVTVSWNSGALTSGVHTFPAVLQSSGLYSLSSVVTVPSSSLGTQTYICNVNHKPSNTKVDKKVEPKSCDKTHTCPPCPAPELLGGPSVFLFPPKPKDTLMISRTPEVTCVVVDVSHEDPEVKFNWYVDGVEVHNAKTKPREEQYNSTYRVVSVLTVLHQDWLNGKEYKCKVSNKALPAPIEKTISKAKGQPREPQVYVYPPSRDELTKNQVSLTCLVKGFYPSDIAVEWESNGQPENNYKTTPPVLDSDGSFALVSKLTVDKSRWQQGNVFSCSVMHEALHNHYTQKSLSLSPG heavy 2: not shown light: DYQMTQSPSSVSASVGDRVTITCRASQSIGDWLAWYQQKPGKAPKLLIYEASTLASGVPSRFSGSGSGTDFTLTISSVQPEDAATYYCQQGYGRSNVDNIFGGGTKVEVKRTVAAPSVFIFPPSDEQLKSGTASVVCLLNNFYPREAKVQWKVDNALQSGNSQESVTEQDSKDSTYSLSSTLTLSKADYEKHKVYACEVTHQGLSSPVTKSFNRGEC | 1.14 | 0.72 | 1.12 | 3.9 | 1 | 1.5 | 1.1 |
| v30384-MC-GGFG-Compound 140 (antibody, human IgG1, kappa, drug-linker MC-GGFG-Compound 140 on the antibody at DAR 8; conjugated residues not stated) heavy 1: EVQLLESGGGLVQPGGSLRLSCAVSGFSLSSYGVSWVRQAPGKGLEWIGAVNSGGSAYYADSVKGRSTISRDNSKNTVYLQMNSLRAEDTAVYYCARSGSGYPMDYLAIWGQGTLVTVSSASTKGPSVFPLAPSSKSTSGGTAALGCLVKDYFPEPVTVSWNSGALTSGVHTFPAVLQSSGLYSLSSVVTVPSSSLGTQTYICNVNHKPSNTKVDKKVEPKSCDKTHTCPPCPAPELLGGPSVFLFPPKPKDTLMISRTPEVTCVVVDVSHEDPEVKFNWYVDGVEVHNAKTKPREEQYNSTYRVVSVLTVLHQDWLNGKEYKCKVSNKALPAPIEKTISKAKGQPREPQVYVYPPSRDELTKNQVSLTCLVKGFYPSDIAVEWESNGQPENNYKTTPPVLDSDGSFALVSKLTVDKSRWQQGNVFSCSVMHEALHNHYTQKSLSLSPG heavy 2: not shown light: DYQMTQSPSSVSASVGDRVTITCRASQSIGDWLAWYQQKPGKAPKLLIYEASTLASGVPSRFSGSGSGTDFTLTISSVQPEDAATYYCQQGYGRSNVDNIFGGGTKVEVKRTVAAPSVFIFPPSDEQLKSGTASVVCLLNNFYPREAKVQWKVDNALQSGNSQESVTEQDSKDSTYSLSSTLTLSKADYEKHKVYACEVTHQGLSSPVTKSFNRGEC |  |  |  | 6.7 | 0.2 | 20.5 | 1.6 |
| v30384-MT-GGFG-Compound 140 (antibody, human IgG1, kappa, drug-linker MT-GGFG-Compound 140 on the antibody at DAR 8; conjugated residues not stated) heavy 1: EVQLLESGGGLVQPGGSLRLSCAVSGFSLSSYGVSWVRQAPGKGLEWIGAVNSGGSAYYADSVKGRSTISRDNSKNTVYLQMNSLRAEDTAVYYCARSGSGYPMDYLAIWGQGTLVTVSSASTKGPSVFPLAPSSKSTSGGTAALGCLVKDYFPEPVTVSWNSGALTSGVHTFPAVLQSSGLYSLSSVVTVPSSSLGTQTYICNVNHKPSNTKVDKKVEPKSCDKTHTCPPCPAPELLGGPSVFLFPPKPKDTLMISRTPEVTCVVVDVSHEDPEVKFNWYVDGVEVHNAKTKPREEQYNSTYRVVSVLTVLHQDWLNGKEYKCKVSNKALPAPIEKTISKAKGQPREPQVYVYPPSRDELTKNQVSLTCLVKGFYPSDIAVEWESNGQPENNYKTTPPVLDSDGSFALVSKLTVDKSRWQQGNVFSCSVMHEALHNHYTQKSLSLSPG heavy 2: not shown light: DYQMTQSPSSVSASVGDRVTITCRASQSIGDWLAWYQQKPGKAPKLLIYEASTLASGVPSRFSGSGSGTDFTLTISSVQPEDAATYYCQQGYGRSNVDNIFGGGTKVEVKRTVAAPSVFIFPPSDEQLKSGTASVVCLLNNFYPREAKVQWKVDNALQSGNSQESVTEQDSKDSTYSLSSTLTLSKADYEKHKVYACEVTHQGLSSPVTKSFNRGEC | 1.29 | 3.75 | 12.4 |  |  |  |  |
| v30384-MT-GGFG-Compound 141 (antibody, human IgG1, kappa, drug-linker MT-GGFG-Compound 141 on the antibody at DAR 8; conjugated residues not stated) heavy 1: EVQLLESGGGLVQPGGSLRLSCAVSGFSLSSYGVSWVRQAPGKGLEWIGAVNSGGSAYYADSVKGRSTISRDNSKNTVYLQMNSLRAEDTAVYYCARSGSGYPMDYLAIWGQGTLVTVSSASTKGPSVFPLAPSSKSTSGGTAALGCLVKDYFPEPVTVSWNSGALTSGVHTFPAVLQSSGLYSLSSVVTVPSSSLGTQTYICNVNHKPSNTKVDKKVEPKSCDKTHTCPPCPAPELLGGPSVFLFPPKPKDTLMISRTPEVTCVVVDVSHEDPEVKFNWYVDGVEVHNAKTKPREEQYNSTYRVVSVLTVLHQDWLNGKEYKCKVSNKALPAPIEKTISKAKGQPREPQVYVYPPSRDELTKNQVSLTCLVKGFYPSDIAVEWESNGQPENNYKTTPPVLDSDGSFALVSKLTVDKSRWQQGNVFSCSVMHEALHNHYTQKSLSLSPG heavy 2: not shown light: DYQMTQSPSSVSASVGDRVTITCRASQSIGDWLAWYQQKPGKAPKLLIYEASTLASGVPSRFSGSGSGTDFTLTISSVQPEDAATYYCQQGYGRSNVDNIFGGGTKVEVKRTVAAPSVFIFPPSDEQLKSGTASVVCLLNNFYPREAKVQWKVDNALQSGNSQESVTEQDSKDSTYSLSSTLTLSKADYEKHKVYACEVTHQGLSSPVTKSFNRGEC | 1.68 | 0.81 | 0.44 | 5 | 1 | 1.6 | 0.4 |
| v30384-MT-GGFG-Compound 148 (antibody, human IgG1, kappa, drug-linker MT-GGFG-Compound 148 on the antibody at DAR 8; conjugated residues not stated) heavy 1: EVQLLESGGGLVQPGGSLRLSCAVSGFSLSSYGVSWVRQAPGKGLEWIGAVNSGGSAYYADSVKGRSTISRDNSKNTVYLQMNSLRAEDTAVYYCARSGSGYPMDYLAIWGQGTLVTVSSASTKGPSVFPLAPSSKSTSGGTAALGCLVKDYFPEPVTVSWNSGALTSGVHTFPAVLQSSGLYSLSSVVTVPSSSLGTQTYICNVNHKPSNTKVDKKVEPKSCDKTHTCPPCPAPELLGGPSVFLFPPKPKDTLMISRTPEVTCVVVDVSHEDPEVKFNWYVDGVEVHNAKTKPREEQYNSTYRVVSVLTVLHQDWLNGKEYKCKVSNKALPAPIEKTISKAKGQPREPQVYVYPPSRDELTKNQVSLTCLVKGFYPSDIAVEWESNGQPENNYKTTPPVLDSDGSFALVSKLTVDKSRWQQGNVFSCSVMHEALHNHYTQKSLSLSPG heavy 2: not shown light: DYQMTQSPSSVSASVGDRVTITCRASQSIGDWLAWYQQKPGKAPKLLIYEASTLASGVPSRFSGSGSGTDFTLTISSVQPEDAATYYCQQGYGRSNVDNIFGGGTKVEVKRTVAAPSVFIFPPSDEQLKSGTASVVCLLNNFYPREAKVQWKVDNALQSGNSQESVTEQDSKDSTYSLSSTLTLSKADYEKHKVYACEVTHQGLSSPVTKSFNRGEC | 0.54 | 0.73 | 3.45 |  |  |  |  |
| v30384-MC-GGFG-AM-Compound 141 (antibody, human IgG1, kappa, drug-linker MC-GGFG-AM-Compound 141 on the antibody at DAR 8; conjugated residues not stated) heavy 1: EVQLLESGGGLVQPGGSLRLSCAVSGFSLSSYGVSWVRQAPGKGLEWIGAVNSGGSAYYADSVKGRSTISRDNSKNTVYLQMNSLRAEDTAVYYCARSGSGYPMDYLAIWGQGTLVTVSSASTKGPSVFPLAPSSKSTSGGTAALGCLVKDYFPEPVTVSWNSGALTSGVHTFPAVLQSSGLYSLSSVVTVPSSSLGTQTYICNVNHKPSNTKVDKKVEPKSCDKTHTCPPCPAPELLGGPSVFLFPPKPKDTLMISRTPEVTCVVVDVSHEDPEVKFNWYVDGVEVHNAKTKPREEQYNSTYRVVSVLTVLHQDWLNGKEYKCKVSNKALPAPIEKTISKAKGQPREPQVYVYPPSRDELTKNQVSLTCLVKGFYPSDIAVEWESNGQPENNYKTTPPVLDSDGSFALVSKLTVDKSRWQQGNVFSCSVMHEALHNHYTQKSLSLSPG heavy 2: not shown light: DYQMTQSPSSVSASVGDRVTITCRASQSIGDWLAWYQQKPGKAPKLLIYEASTLASGVPSRFSGSGSGTDFTLTISSVQPEDAATYYCQQGYGRSNVDNIFGGGTKVEVKRTVAAPSVFIFPPSDEQLKSGTASVVCLLNNFYPREAKVQWKVDNALQSGNSQESVTEQDSKDSTYSLSSTLTLSKADYEKHKVYACEVTHQGLSSPVTKSFNRGEC | 3.45 | 0.77 | 0.43 | 8.5 | 0.6 | 1.8 | 0.4 |
